Blank lines part the entries; values can stand above or below the binder they belong to.
Tests used:
Assay in all cases: pull-down
[1] = target: hnRNP-A1 N-terminal RRMs fragment (a.a. 1-188) (UniProt P09651-2 1-188)
[2] = target: GST fusion with the C-terminal DNA-PKcs fragment H (a.a. 3747-4128) (human, UniProt P78527 3747-4128)
[3] = target: GST fusion with DNA-PKcs fragment H2 (a.a. 3747-4097) (human, UniProt P78527 3747-4097)
Chain of GST fusion with DNA-PKcs fragment H2 (a.a. 3747-4097) (P78527 3747-4097): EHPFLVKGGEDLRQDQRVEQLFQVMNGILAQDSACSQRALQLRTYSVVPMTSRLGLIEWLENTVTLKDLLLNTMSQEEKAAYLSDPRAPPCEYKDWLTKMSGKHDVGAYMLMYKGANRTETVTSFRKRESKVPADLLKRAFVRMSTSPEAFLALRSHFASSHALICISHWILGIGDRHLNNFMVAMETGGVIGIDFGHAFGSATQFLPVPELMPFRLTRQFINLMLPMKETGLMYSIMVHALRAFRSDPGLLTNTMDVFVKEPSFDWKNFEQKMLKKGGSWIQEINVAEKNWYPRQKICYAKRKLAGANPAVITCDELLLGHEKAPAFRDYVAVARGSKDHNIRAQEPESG

binding result [1]: binds
B1: GST fusion with DNA-PKcs fragment H3 (a.a. 4036-4128) (domain or fragment, human, UniProt P78527 4036-4128, looked up)
chain: KNWYPRQKICYAKRKLAGANPAVITCDELLLGHEKAPAFRDYVAVARGSKDHNIRAQEPESGLSEETQVKCLMDQATDPNILGRTWEGWEPWM

binding result [2]: binds
binding result [3]: binds
B2: His-tagged full-length hnRNP-A1 (recombinant, wild type) (natural protein, UniProt P09651-2 1-320, looked up)
chain: MSKSESPKEPEQLRKLFIGGLSFETTDESLRSHFEQWGTLTDCVVMRDPNTKRSRGFGFVTYATVEEVDAAMNARPHKVDGRVVEPKRAVSREDSQRPGAHLTVKKIFVGGIKEDTEEHHLRDYFEQYGKIEVIEIMTDRGSGKKRGFAFVTFDDHDSVDKIVIQKYHTVNGHNCEVRKALSKQEMASASSSQRGRSGSGNFGGGRGGGFGGNDNFGRGGNFSGRGGFGGSRGGGGYGGSGDGYNGFGNDGSNFGGGGSYNDFGNYNNQSSNFGPMKGGNFGGRSSGPYGGGGQYFAKPRNQGGYGGSSSSSSYGSGRRF

Reference: PMC4499152 (Nucleic Acids Research, 2015)
